Experimental findings from paper PMC10607609, “The Functionality of IbpA from Acholeplasma laidlawii Is Governed by Dynamic Rearrangement of Its Globular–Fibrillar Quaternary Structure” (International Journal of Molecular Sciences, 2023) are described below.

Assay [1] concerns the target full-length AlIbpA_(His6), small heat shock protein IbpA from Acholeplasma laidlawii (Acholeplasma laidlawii) (UniProt A9NFB2). The assay can be described thus: BLI; BLItz; biotinylated AlIbpA_(His6) loaded on a streptavidin biosensor (2.0 nm); analyte 10 µM in PBS pH 7.4; 300 s association, 300 s dissociation; BSA control subtracted.
Assay [2] deals with AlDnaKST, recombinant C-terminally StrepII-tagged DnaK (HSP70) from Acholeplasma laidlawii (Acholeplasma laidlawii) (UniProt A9NFN8). The assay can be described thus: BLI; BLItz; biotinylated AlDnaKST or AlClpBST loaded on a streptavidin biosensor (2.0 nm); analyte in PBS pH 7.4; 300 s association, 300 s dissociation; BSA control subtracted.
The target of assay [3] is T1, AlDnaKST, recombinant C-terminally StrepII-tagged DnaK (HSP70) from Acholeplasma laidlawii (Acholeplasma laidlawii, UniProt A9NFN8 1-610, biotin (EZ-Link NHS-PEG4-biotin) where it was the protein immobilised on the streptavidin biosensor).
T1 construct: DnaK (HSP70) of Acholeplasma laidlawii, from a synthetic gene dnaK cloned in pET-28a(+); Plasmid pET-28a-AlDnaKST; source: E. coli BL21 (DE3), purified (Strep-tactin agarose); not shown: StrepII, C-terminal, kept
The assay is described as above. The following applies: both partners purified.

Assay [4] addresses AlClpBST, recombinant C-terminally StrepII-tagged ClpB (HSP100) from Acholeplasma laidlawii (Acholeplasma laidlawii). Described as above.
In assay [5] the target is T1, AlDnaKST, recombinant C-terminally …. The assay can be described thus: BLI; BLItz; biotinylated AlIbpA_(His6) loaded on a streptavidin biosensor (2.0 nm); analyte 10 µM in PBS pH 7.4; 300 s association, 300 s dissociation; BSA control subtracted. The following applies: both partners purified.

For “AlClpBST, recombinant C-terminally StrepII-tagged ClpB (HSP100) from Acholeplasma laidlawii (natural protein)”, the results for the Kd in assay [1] and in assay [2] were 1200 nM and 20300 nM, respectively.
As to “AlIbpA∆N12_(His6)–insulin complex, chemically cross-linked with glutaraldehyde (from UniProt A9NFB2 13-137)”, the fold increase in KD against AlIbpA∆N12 (His6) alone in assay [2] was found to be 2 fold.
Take human insulin (ligand): the Kd in assay [1] amounted to 100 nM.

B1: AlIbpAΔN12_(His6), AlIbpA lacking 12 N-terminal amino acid residues (domain or fragment, Acholeplasma laidlawii, UniProt A9NFB2 13-137, looked up)
chain: DDFFEDFNVLNPVTTSNLMRTDIKETQNGYSLSVELPGFKKEDVKVSLEDGYLTIEAHTSKNSETKDQATKYIRKERYEGTMKRSYYVGNLHLDEINGTFENGMLHIELPKETKKEPEKRYLELK
notes: The limit 13 is worked out from 'removal of 12 N-terminal amino acid residuals'; Forms mostly fibrils; also called AlIbpA∆N12_(His6); AlIbpAN12_(His6); source: E. coli BL21 (DE3), purified (Ni-NTA agarose)
Consider B1, for which the “fold decrease of binding affinity against full-length AlIbpA_(His6)” value in assay [3] turned out to be 15 fold.

B2: full-length AlIbpA_(His6), small heat shock protein IbpA from Acholeplasma laidlawii (natural protein, UniProt A9NFB2 1-137, looked up)
chain: MLSLLNKNRSFFDDFFEDFNVLNPVTTSNLMRTDIKETQNGYSLSVELPGFKKEDVKVSLEDGYLTIEAHTSKNSETKDQATKYIRKERYEGTMKRSYYVGNLHLDEINGTFENGMLHIELPKETKKEPEKRYLELK
modifications: biotin (EZ-Link NHS-PEG4-biotin) where it was the protein immobilised on the streptavidin biosensor
notes: Forms globular and fibrillar oligomers; also called HSP20; sHSP; source: E. coli BL21 (DE3), purified (Ni-NTA agarose)
As for B2, the Kd came to 200 nM in assay [4], 3100 nM in assay [5] and 100 nM in assay [3].
